The data set is described as follows: label from the status in PepcDB records.

Take “GYDHKKMGITAKGAWVGVQRHFRERDINVQQDSISVIGIGDMAGDVFGNGLLMSDKLQLVAAFNHLHIFIDPNPEPASSFAERERLFNLPRSSWTDYDTSIMSAGGGIFPRSLKSIAITEQMKARFDIKADKLTPTELLHALLKAPVDLLWNGGIGTYVKSSEESHADVGDKANDALRVDGNELRCKVVGEGGNLGMTQLGRVEFGLNGGATNTDFIDNAGGVDCSDHEVNIKILLNEVVQAGDMTEKQRNQLLESMTDEVGHLVLGNNYKQTQALSLAARRAYERIAEYKRLMSDLEARGKLD”: the protein production entry was “not failed”.
As for “GYIQMPLFRLHVQVFTPEREIPLGTVCLLHGYLEHSGIYQPIIREILDQGFSVVTYDLPGHGLSDGSPANIQNFDHYQQVLMAVYQYVKNADQLPKPWLGIGQSTGGAIWMHHLLEYAEKRQDPIVDRVLLLSPLIRPAKTAWWHNSVGLGIIRRIRRQVPRHFRRNNHNPEFLRFIRLKDPLQPRMMGMDWILAMSKWMFEMEQRPACRIPVWLAQGALDQTVDWRYNIEFIRRKFRLQTLLMLEEGSHQLINERADIRAALTGLIPAFLHAR”, the protein production entry was “failed”.
“HGGHRQYAKEILSTSSAAMASQRSFLGLEPTIKKIPAFRAVYLRHKGYNKSIALSWQKLMAWGFEHQISSQARQIGIHHDNPSITPLAECRYIAALEVEEGFRAQGLLGVMEFPPTLCAVFEVQGRYGDVLGLIDYVYHEWLPQSGYEAKTIPAFALYQKNHFLDPLGNFQLDFCLPVGVV”: the protein production result is given as “failed”.
As to “HHIAYTEWGIFEPELPTVICVHGYTRNSRDFDELANYLSSKGRHVFCPDIAGRGDSSWFKNPRYYNFTQYVKDMTVLMARTNAHQIDWIGTSMGGIIGMILAAMPNSPINKLVLNDIGPQIPIHGLRRIAKYAGKAPDFKSLEEAKQHFKASYADFGITNEKQWDIFTKNSVEQRGPNLYVTKMDPAIKKSKSILQIISEFFRHPHKALEGIFYDINLWSIWKQIKCPVIVIHGVNSDILTSEIITQMKKTHALTEVYEVENAGHAPALLDLTVHQRIEDWLATH”, the protein production result is on record as “failed”.
For “HHSVEAPQVKKRMGKFPFVKASKKESEEISKQLHNALDIELPSESTVWLRDKDVWLFPDALEPMIGELRFSRMGIKIAEAHKNGYRWQHQVATALATGAESNAIELTIEEAREWYMGRDVRPQIIPEGLKTGKGEVLVKYQGAIIGLGKWVSNRIKNGLPRELVRDKNLF”, the protein production entry is recorded as “not failed”.
“HQEIKGRKTLATPAVRRLAMENNIKLSEVVGSGKDGRILKEDILNYLEKQTGAILPP”: the protein production entry is “not failed”.
The entry for “HRPLNPAMVAFSNDPLLNDLALNSSYSLLFAVNNMKSEKSAEQFYGKMDNQKMLDLVRASSTKIDFDPTLLPTMNSNPATYQGKRKNLVILLQESLGAQFVGSLGGLPLTPNLDELMQEGWQFTQMYATGTRSVRGIEAVTTGFPPSPSRAVVKLSKSQTGFFTIADLLKEQGYHTQFIYGGEANFDNMKTFFFGNGFDQIVEEKNYTNPGFVGSWGVSDEDLYNKADEEFERLSKGDKPFFSLVFTSSNHSPYEYPEGKIEQYDSEHMTRNNAVKYSDYALGTFFDKAKKSSYWDDTIFIVIADHDARVFGANLVPVKHFHIPALIIGKDIQPRKDDRIANNIDMPPTLLSLIGVDAKTPMIGRDLTKPLAREDERAMMQYDKNFGYLTRDNLVVLSPGEKVSTMEYDFESQTMKPLEVDESVIDRAKANALFASKAYQNNWYSSKRTN” is “not failed”; for “HRSDPQIAICLDCLRNNGQSGDNVVKGLMKKFIRCSTRVTVGTIKKFLSLKLKLPSSYELDVLCNGEIMGKDHTMEFIYMTRWRLRGENFRCLNCSASQVCSQDGPLYQSYPMVLQYR” it is “failed”.
With “HRWITRPKFTHFDLHTLNWDLCLTQANHKSNLALEMLKMLLDSLPETVEKIQTALGQNDQATMLSTIHKLHGASCYCGVPTTQRLCQEIESALKRQTPVEDLEPEILELLDELTKVESAVKQVLSQLSAE” the entry was “not failed”.
The entry for “HSFVVLVIGESARKHNYALYGYQKPTTPRLSKRLADNELTLFNATSCATYTTASLECILDSSFKNNAYENLPTYLTKAGIKVFWYSANDGEKNVKVTSYLKNYELIQKCPNCEAIAPYDESLLYNLPDLLKEHSNENVLLILHLAGSHGPNYDNKVPLNFRVFKPYCSSADLSSCSKESLINAYDNTIFYNDYLLDKIISMLENAKQPALMIYLSDHGESLGEEAFYLHGIPKSIAPKEQYEIPFIVYAN” is “failed”; for “HSIPYKNINLPCYFISPANDGEKRDTVMIVSGFDGTLEEEFLMRGLAAVERGYNVIHFAGPGQMDVFRKYPDTYFEPDFEQVVKRIINYFEFRQEINMAKLTLMGISFGGYFATRAASHEPRIKVLIANSPILDLHAYMCSFVKMDPCEMPDSEDFSINDLPSIPNEVMPPQLKAQTEHLIRRFGQPTFKATFHYLREFTVGDSLNHIKIPCLALLGSGEGGEPGKQFAEFCKITNSAQYEFSDFEGAGSHCQVGNVSYSNAVVYDWLDSL” it is “not failed”.
Take “HSIVAITDNRGVITHVNEKFCDISQYEYYELVGTTHKIINSGFHPRSFFKQMWKTIAQGNIWKGEICNRTKQGKLYWVDTTIVPLKDND”: the protein production entry is on record as “failed”.
With “IAAGGSHVEAAPQEEWKKHFIHTGELGSAEFASVMSHTTSAMKSVFEQVNAPYSGMDPKALEDAINAVDLDNKNAPLKSVIDDVAELVAKNAIFTQHPDCIAHLHTPPLMPAVAAEAMIAALNQSMDSWDQASSATYVEQKVVNWLCDKYDLSEKADGIFTSGGTQSNQMGLMLARDWIADKLSGHSIQKLGLPDYADKLRIVCSKKSHFTVQKSASWMGLGEKAVMTVDANADGTMDITKLDEVIAQAKAEGLIPFAIVGTAGTTDHGAIDDLDFIADMAVKHDMWMHVDGAYGGALILSSHKSRLKGVERAHSISVDFHKLFYQTISCGALLVNDKSNFKFLLHHADYLNREHDELPNLVDKSIATTKRFDALKVFMTMQNVGPKALGDMYDHLLAQTLEVADMIRTNDQFELLAEPSLSTVLFRATHETADLDELNKALRLEALTRGIAVLGETIVDGKTALKFTILNPCLTTSDFESLLSKINMLAVELV” the entry was “not failed”; with “IAQIPVSVYWMNKNHVYMGCSNNMVKLLNLNSRYDIVGKTYEDLYHEKSTSYYKKADKIVMDKGISLSLEEPFYCPDGTTKEIYLSNKVPLRDLEGKIIGMLGVSVDIT”, “failed”.
For “IDTNLLYVFFTSGSTGIPKGVSIAHKSVIDYTFWVCETFKFDENEILANQAPFYFDNSILDIFSSVKSGATLHLLPNHLFAFPNKILECLEKEKVSTIFWVPSVLIYFANTEALNNFSLNALKKMLFCGEIMPNKQLNIWRKHLPNALFANLYGPTEITDVCSFYIINRTFKDEEL”, the protein production result was “failed”.
Turning to “IEAENHKVTDKIKNAQPFLVDVVPAKSVIPELNDDAQKTLLHAGPPIQWSEMTGPMKGACIGAALFERWADNEEDALKIFEAGEVRFIPCHHVKAVGPMGGITSGNMPVFVVENRLEGNEAYCILNEGIGKVLRFGAYSQEVVDRLDWIKDVLGPTIAKALKLSEEGLNLNVLIARSITMGDEFHQRNIAASLNFLKELSPLIIKTDIPEDQKYEVIKFLADTDQFFLNVMMATGKAIVDGARKDTNGTIVTTMTRNGVNFGVRIAETGDQWHTAPVNTPKGLYFTGFSEEDGNPDVGDSAITETVGVGAMAMVAAPGVTRFVGAGGFEDALATSNEMAKICEGNNPTFSIPTWDFQGTCLGIDIRKVVELGITPIINTGIAHKNAGVGQIGAGTVRAPLGCFEKALEAYAEKLGITVE”, the protein production result is “failed”.
Turning to “IEFESRTTDEGVAVVRPAGRLNMVAAPRLRELLRDVVDGGTTCVVVDLSATDFIDSSGLGALIAGLKAARQAGGDLRIAQPTEQVETVLALTNLNRVLRTHDSVDAAFD”, the protein production result was “failed”.
With “IEKCWTEDEVKRFVKGLRQYGKNFFRIRKELLPNKETGELITFYYYWKKT” the entry was “not failed”; with “IGIVNDMPLAVEALRRALAFEPQHQIVWVASNGAEAVTQCAADTPDVVLMDLLMPVMDGVEATRRIMAESPCAIVIVTVDIEQNVHRVFEAMGYGALDAVNTPALGIGNPQTAAAPLLRKIQNVGWLIGQRDNRGKVQVVPPKAGGARQRLVAIGASAGGPASLAVLLKQLPASFNAAVVLVQHVDEVFAAGMAEWLASESKLPVRLARDGEPPIPGQILLAGTNNHIRLLRNGSLVYTAEPRSFVYRPSIDVFFESVANYWRGDAVGVLLTGMGRDGAQGLKQMRERGFLTIAQDQASCAVYGMPKAAAAIDAAVQILSLEKIA”, “failed”; with “IGIWFTGTDGRYHFVNKTFCNLVGIEEEDMLNTPSSNLAELLGSEIAHNCLDSDRAALGQDLAHVSYETIPRLNAKPYLLEITKVKLKNTR”, “failed”.
With “IHHLPPVKAPLQTKKKIMKHCFLCGKKTGLATSFECRCGNNFCASHRYAEAHGCNYDYKSAGRRYLEEANPV”, the protein production entry is given as “not failed”.
With “IHIQQIENLMEYEFSHLVQDSEEEGFNFLIRLINGYKNKVNVFNKTGECLYGIFQGDMLIGVGGLNEDPYTKDNKIGRLRRFYISRDYRRLGLGNLLLNQLLCHAEKYFEVIVLHTDTKQGDVFYTANGFVK” the entry was “failed”; with “IIAWLGPQLRELTPVDTNKDPKTRLQEFLQSRGCDLPRYEVVDIQGEPHCRTFFVDCEVALLSDKTHGHGGSRRIAEQVAAAAALVALGVENGHD”, “failed”; with “ILTENTPYFEQLSVPQRSVGRIIGRGGETIRSICKASGAKITCDKESEGTLLLSRLIKISGTQKEVAAAKHLILEKVSEDEELRKRIAHSA”, “not failed”.
Regarding “INIEIAYAFPERYYLKSFQVDEGITVQTAITQSGILSQFPEIDLSTNKIGIFSRPIKLTDVLKEGDRIEIYRPLLADPKEIRRK”, the protein production entry is given as “not failed”.
Consider “INSAIELMEHNSSLSISEIAQFTNTSTAYFSRIFKKTIGETPVCFYTKIKLKKVQKLLITTNLTLAEISEQTGFTDPFYLSKVFTTHLGCSPRTYRKN”, for which the protein production entry is “failed”.
The entry for “IPLGIYEKALPAGECWLERLKLAKALGFDFVEMSLDETDARLARLDWSPEQRLALVKAVAETGVRVPSMCLSAHRRFPLGSEDDAVRHQGLEIMRKAIQLAQDVGIRVIQLAGYDVYYQQANDETRRRFRDGLKQSVEMASRAQVTLAMEIMDYPLMNSISKALGYAHYLNNPWFQLYPDIGNLSAWDNDVQMELKAGSGHIVAVHVKDTKPGVFKNVPFGEGVVDFERCFETLKQTGYCGPYLIEMWSETSADPLAEVAKARDWVKARMARAGLM” is “not failed”; for “IPTCKITLKETFLTSPEELYRVFTTQELVQAFTHAPATLEADRGGKFHMVDGNVSGEFTDLVPEKHIVMKWRFKSWPEGHFATITLTFIDKNGETELCMEGRGIPAPEEERTRQGWQRYYFEGIKQTFGYGA” it is “not failed”; for “IQAGILANSFHVKLSDETQMVVKYQNQPFVNGTFGNWQILEAETINGINQILWRNPDIEEVGIWNTDANWNWISSETWSANSLKTLNAEVTFQIDINNDQLIG” it is “failed”.
Regarding “IQLIVNGQSQLVPSPDSGTDSGTTNDARLNIRQLLEHMGLQGKRIAVERNGEIVPRSQFDQPMLASGDKLEIVVAVGGG”, the protein production entry was “failed”.
The entry for “IQPTYTSTTRIYVVNQATDNNNLSAQDLQAGTYLANDYKEIITSNDVLSEVIKDEKLNLSEAELSKMVSVNIPTDTRLISISVNAKTGQDAQTLANKVREVASKKIKKVTKVEDVTTLEEAKLPESPSSPNIK” is “failed”; for “IQRSIERALDFRKEVQRLREESDGWFFDIWQPEAVDKAECWPVAPGEDWHGFKDADADHMYLDPVKVTILTPGMDEQGNMDEEGIPAALVAKFLDERGVVVEKTGPYNLLFLFSIGIDKTRAMGLLRGLTEFKRAYDLNLRVKNMLPDLYAEDPDFYRNMRIQDLAQGIH” it is “failed”.

The record behind these values is a protein production outcome set (Wang et al. 2014).
